Legend:
[1] = target: T1, human LILRB1 expressed on cells (human, UniProt Q8NHL6 24-650); assay: flow cytometry, Jurkat-LILRB1 cells; blocked ligand: APC HLA-G trimer tetramer
T1 construct: In 293T cells it was expressed from pCMV3-LILRB1-GFP; also called CHO-LILRB1; Jurkat-LILRB1

[2] = target: T2, LILRB2-ECD-HIS (SinoBiological Cat #: 14132-H02H) (human, UniProt Q8N423 22-460); assay: BLI (Gator), trace labelled 2 µg/mL; unit taken from the Average KD line
T2 construct: Bought protein; also called monomeric antigen LILRB2-ECD-HIS; not shown: His tag

[3] = target: T3, human LILRB2 expressed on cells (human, UniProt Q8N423 22-597); assay: flow cytometry, Jurkat-LILRB2 cells
T3 construct: In 293T cells it was expressed from pCMV3-LILRB2-GFP; also called CHO-LILRB2; Jurkat-LILRB2

[4] = target: T4, LILRB1-ECD-HIS (SinoBiological Cat #: 16014-H02H) (human, UniProt Q8NHL6 24-461); assay: SPR (Carterra), LILRB1-ECD-his
T4 construct: Bought protein; also called monomeric antigen LILRB1-ECD-HIS; not shown: His tag

[5] = target: T2, LILRB2-ECD-HIS (SinoBiological Cat #: …); assay: BLI (Gator), trace labelled 0.5 µg/mL; unit taken from the Average KD line
[6] = target: T1, human LILRB1 expressed on cells; assay: flow cytometry on CHO-LILRB1 cells, non-linear fit of the curves of FIG. 26A
[7] = target: T2, LILRB2-ECD-HIS (SinoBiological Cat #: …); assay: BLI (Gator Prime), antibody on anti-hIgG Fc probe, monomeric LILRB2-ECD-HIS in solution
[8] = target: T1, human LILRB1 expressed on cells; assay: flow cytometry, CHO-LILRB1 cells
[9] = target: T5, LILRA5 expressed on 293T cells (UniProt A6NI73 42-299, limits assumed); assay: flow cytometry on 293T cells transiently expressing LILRA5, APC anti-human Fc; gMFI as fold to IgG staining
T5 construct: whole, on cells; GFP-tagged, transient

[10] = target: T4, LILRB1-ECD-HIS (SinoBiological Cat #: …); assay: BLI (Gator), trace labelled 0.5 µg/mL; unit taken from the Average KD line
[11] = target: T1, human LILRB1 expressed on cells; assay: flow cytometry, CHO-LILRB1 cells; blocked ligand: APC HLA-G trimer tetramer
[12] = target: T1, human LILRB1 expressed on cells; assay: flow cytometry, CHO-LILRB1 cells; remark: listed apart in the source
[13] = target: T1, human LILRB1 expressed on cells; assay: flow cytometry, Jurkat-LILRB1 cells
[14] = target: T6, LILRB5 expressed on 293T cells (UniProt O75023 24-590, limits assumed); assay: flow cytometry on 293T cells transiently expressing LILRB5, APC anti-human Fc; gMFI as fold to IgG staining
T6 construct: whole, on cells; GFP-tagged, transient

[15] = target: T7, cynomolgus monkey putative LILRB2 (antigen of the Gator measurement) (cynomolgus monkey); assay: BLI (Gator), cyno RB2-his
T7 construct: also called cynomolgus monkey LILRB2

[16] = target: T3, human LILRB2 expressed on cells; assay: flow cytometry, Jurkat-LILRB2 cells; blocked ligand: APC HLA-G monomer tetramer
[17] = target: T2, LILRB2-ECD-HIS (SinoBiological Cat #: …); assay: BLI (Gator), RB2-ECD-his
[18] = target: T2, LILRB2-ECD-HIS (SinoBiological Cat #: …); assay: SPR (Carterra LSA), antibody captured, antigen injected;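 also: kd obtained from kinetic analysis of antibody binding to the antigen, with association and dissociation phases fitted in the instrument software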
[19] = target: T4, LILRB1-ECD-HIS (SinoBiological Cat #: …); assay: as above
[20] = target: T8, LILRA4 expressed on 293T cells (UniProt P59901 24-499, limits assumed); assay: flow cytometry on 293T cells transiently expressing LILRA4, antibody 5 µg/mL, APC anti-human Fc; gMFI as fold to IgG staining
T8 construct: whole, on cells; GFP-tagged, transient

[21] = target: T9, LILRA1 expressed on cells (human, UniProt O75019 17-489); assay: flow cytometry on CHO-LILRA1 cells (CHO-RA1), titrated antibody, labelled anti-human Fc, gMFI
T9 construct: whole, on cells; GFP-tagged; also called human LILRA1; CHO-LILRA1

[22] = target: T10, LILRA2 expressed on 293T cells (UniProt Q8N149 24-483, limits assumed); assay: flow cytometry on 293T cells transiently expressing LILRA2, APC anti-human Fc; gMFI as fold to IgG staining
T10 construct: whole, on cells; GFP-tagged, transient

[23] = target: T3, human LILRB2 expressed on cells; assay: flow cytometry, Jurkat-LILRB2 cells; remark: listed apart in the source

T3 sequence (Q8N423 other isoform, or with tags, fused parts or gaps limits assumed): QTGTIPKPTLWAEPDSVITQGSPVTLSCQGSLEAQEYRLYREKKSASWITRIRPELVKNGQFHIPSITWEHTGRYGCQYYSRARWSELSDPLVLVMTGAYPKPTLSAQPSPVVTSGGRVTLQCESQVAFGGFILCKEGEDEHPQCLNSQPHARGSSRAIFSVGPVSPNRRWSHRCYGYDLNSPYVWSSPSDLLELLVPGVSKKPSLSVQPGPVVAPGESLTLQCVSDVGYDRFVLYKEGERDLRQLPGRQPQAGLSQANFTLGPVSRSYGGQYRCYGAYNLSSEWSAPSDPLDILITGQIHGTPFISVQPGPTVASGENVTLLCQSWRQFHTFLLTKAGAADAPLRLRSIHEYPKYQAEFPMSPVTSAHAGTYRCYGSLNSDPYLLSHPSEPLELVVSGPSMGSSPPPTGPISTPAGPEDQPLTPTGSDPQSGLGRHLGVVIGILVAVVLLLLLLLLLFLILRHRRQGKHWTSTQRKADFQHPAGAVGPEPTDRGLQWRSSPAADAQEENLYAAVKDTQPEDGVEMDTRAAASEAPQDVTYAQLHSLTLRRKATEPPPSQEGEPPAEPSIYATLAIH
T1 sequence (Q8NHL6 other isoform, or with tags, fused parts or gaps limits assumed): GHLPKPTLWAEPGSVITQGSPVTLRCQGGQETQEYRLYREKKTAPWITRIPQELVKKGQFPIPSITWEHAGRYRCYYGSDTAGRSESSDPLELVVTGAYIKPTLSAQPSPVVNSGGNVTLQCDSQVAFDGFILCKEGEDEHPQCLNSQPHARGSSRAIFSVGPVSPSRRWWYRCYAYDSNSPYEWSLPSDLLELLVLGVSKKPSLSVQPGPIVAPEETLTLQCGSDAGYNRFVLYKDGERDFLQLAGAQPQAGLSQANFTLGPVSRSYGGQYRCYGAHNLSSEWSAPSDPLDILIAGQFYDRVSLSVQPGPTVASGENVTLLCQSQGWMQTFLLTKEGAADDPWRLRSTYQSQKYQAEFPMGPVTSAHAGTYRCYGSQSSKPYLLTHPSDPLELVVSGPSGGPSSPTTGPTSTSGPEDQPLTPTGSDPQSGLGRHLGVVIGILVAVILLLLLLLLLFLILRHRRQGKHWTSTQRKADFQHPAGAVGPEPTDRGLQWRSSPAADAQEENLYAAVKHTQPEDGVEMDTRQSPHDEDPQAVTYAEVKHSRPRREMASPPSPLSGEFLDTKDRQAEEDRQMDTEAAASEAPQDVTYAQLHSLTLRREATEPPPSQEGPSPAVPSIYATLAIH
T2 sequence (Q8N423 other isoform, or with tags, fused parts or gaps H02H H02H): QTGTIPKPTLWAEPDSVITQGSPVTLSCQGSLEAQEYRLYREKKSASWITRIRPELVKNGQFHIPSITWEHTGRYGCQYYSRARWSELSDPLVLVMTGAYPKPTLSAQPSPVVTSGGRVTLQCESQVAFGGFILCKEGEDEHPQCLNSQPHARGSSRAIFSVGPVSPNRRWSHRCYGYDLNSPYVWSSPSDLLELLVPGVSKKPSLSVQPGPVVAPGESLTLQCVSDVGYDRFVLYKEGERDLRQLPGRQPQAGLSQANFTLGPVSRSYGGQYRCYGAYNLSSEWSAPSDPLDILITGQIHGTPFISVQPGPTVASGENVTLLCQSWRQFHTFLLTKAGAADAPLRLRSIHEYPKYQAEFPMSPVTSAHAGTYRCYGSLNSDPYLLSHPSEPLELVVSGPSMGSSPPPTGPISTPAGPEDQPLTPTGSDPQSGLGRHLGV
T4 sequence (Q8NHL6 other isoform, or with tags, fused parts or gaps H02H H02H): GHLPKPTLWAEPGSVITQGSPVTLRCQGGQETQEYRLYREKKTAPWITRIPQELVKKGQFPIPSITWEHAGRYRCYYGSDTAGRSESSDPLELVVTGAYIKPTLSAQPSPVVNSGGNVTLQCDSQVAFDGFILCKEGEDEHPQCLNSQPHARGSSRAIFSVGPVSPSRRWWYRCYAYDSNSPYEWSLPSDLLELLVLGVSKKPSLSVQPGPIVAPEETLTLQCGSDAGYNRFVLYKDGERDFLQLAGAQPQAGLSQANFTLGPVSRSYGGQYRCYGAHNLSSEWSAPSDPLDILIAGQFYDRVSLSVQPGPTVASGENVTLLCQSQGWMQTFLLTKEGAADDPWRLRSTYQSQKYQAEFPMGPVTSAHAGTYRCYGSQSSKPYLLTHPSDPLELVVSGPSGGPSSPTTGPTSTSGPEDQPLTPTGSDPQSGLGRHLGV
T6 sequence (O75023 24-590 limits assumed): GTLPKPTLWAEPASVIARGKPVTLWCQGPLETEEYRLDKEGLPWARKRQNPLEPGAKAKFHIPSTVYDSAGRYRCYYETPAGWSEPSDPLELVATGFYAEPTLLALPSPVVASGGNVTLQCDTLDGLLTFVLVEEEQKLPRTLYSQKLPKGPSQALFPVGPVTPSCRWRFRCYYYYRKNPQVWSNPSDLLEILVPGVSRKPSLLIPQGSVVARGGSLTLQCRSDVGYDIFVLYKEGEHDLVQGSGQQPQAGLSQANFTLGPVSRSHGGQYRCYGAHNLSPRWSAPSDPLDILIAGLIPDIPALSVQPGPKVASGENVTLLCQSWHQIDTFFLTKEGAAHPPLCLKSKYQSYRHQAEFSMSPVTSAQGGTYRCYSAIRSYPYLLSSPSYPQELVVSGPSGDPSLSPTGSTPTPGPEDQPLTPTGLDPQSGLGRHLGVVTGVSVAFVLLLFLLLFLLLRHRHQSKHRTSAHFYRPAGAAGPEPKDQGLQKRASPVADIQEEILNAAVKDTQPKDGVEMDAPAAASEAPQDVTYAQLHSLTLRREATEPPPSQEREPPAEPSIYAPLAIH
T5 sequence (A6NI73 42-299 limits assumed): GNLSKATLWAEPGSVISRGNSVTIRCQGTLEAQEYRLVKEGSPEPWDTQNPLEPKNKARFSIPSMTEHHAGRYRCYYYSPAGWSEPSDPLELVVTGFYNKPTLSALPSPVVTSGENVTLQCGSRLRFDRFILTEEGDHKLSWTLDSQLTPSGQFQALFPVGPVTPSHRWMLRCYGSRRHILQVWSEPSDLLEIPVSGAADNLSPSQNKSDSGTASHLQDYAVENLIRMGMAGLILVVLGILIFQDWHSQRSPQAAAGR
T8 sequence (P59901 24-499 limits assumed): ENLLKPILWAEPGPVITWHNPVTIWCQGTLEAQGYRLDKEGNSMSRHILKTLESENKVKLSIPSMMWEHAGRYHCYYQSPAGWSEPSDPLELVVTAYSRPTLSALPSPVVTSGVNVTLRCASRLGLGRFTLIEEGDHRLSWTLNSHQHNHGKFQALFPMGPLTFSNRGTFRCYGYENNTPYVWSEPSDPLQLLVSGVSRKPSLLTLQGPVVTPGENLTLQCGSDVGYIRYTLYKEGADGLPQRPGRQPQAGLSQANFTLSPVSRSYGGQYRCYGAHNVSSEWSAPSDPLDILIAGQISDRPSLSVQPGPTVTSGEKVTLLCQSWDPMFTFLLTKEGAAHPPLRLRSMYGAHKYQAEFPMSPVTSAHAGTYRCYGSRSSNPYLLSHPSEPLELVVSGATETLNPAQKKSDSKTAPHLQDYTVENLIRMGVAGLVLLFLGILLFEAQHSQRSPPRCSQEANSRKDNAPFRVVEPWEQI
T10 sequence (Q8N149 24-483 limits assumed): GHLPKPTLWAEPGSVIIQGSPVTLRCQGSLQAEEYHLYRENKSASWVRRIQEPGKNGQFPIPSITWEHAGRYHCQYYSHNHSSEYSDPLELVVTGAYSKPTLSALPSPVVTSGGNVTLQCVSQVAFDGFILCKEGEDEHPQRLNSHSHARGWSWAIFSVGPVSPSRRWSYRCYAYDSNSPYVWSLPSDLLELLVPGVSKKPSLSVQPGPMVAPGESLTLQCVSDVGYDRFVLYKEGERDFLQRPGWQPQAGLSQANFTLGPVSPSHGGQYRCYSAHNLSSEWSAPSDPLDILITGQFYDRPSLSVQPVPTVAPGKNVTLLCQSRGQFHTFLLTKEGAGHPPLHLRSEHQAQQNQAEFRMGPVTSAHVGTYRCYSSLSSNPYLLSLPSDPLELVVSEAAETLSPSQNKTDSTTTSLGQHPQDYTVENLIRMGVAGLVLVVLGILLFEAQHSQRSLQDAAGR
T9 sequence (O75019 17-489): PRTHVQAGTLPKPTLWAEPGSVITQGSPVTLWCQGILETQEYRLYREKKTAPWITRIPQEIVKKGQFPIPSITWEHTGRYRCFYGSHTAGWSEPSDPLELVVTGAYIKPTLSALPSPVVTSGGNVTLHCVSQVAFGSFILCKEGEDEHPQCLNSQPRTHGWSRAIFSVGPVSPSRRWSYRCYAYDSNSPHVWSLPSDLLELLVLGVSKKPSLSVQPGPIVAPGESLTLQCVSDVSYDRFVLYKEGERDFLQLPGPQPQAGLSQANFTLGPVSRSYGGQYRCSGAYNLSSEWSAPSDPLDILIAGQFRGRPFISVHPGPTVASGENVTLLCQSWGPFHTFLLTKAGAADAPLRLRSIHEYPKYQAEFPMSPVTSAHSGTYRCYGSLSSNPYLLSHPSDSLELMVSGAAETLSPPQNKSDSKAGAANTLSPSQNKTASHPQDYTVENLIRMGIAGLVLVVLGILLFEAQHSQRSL

B1: D2M002-002 (antibody, V domains shown)
VH: EVQLQQSGPELVKPGASVKMSCKASGYTFTRYVMHWVKQKPGQGLEWIGYINPNNDGTKYNEKFKGKVTLTSDKSSSTAYMELSSLTSEDSAVYYCARGDLEILPYYDHARNAMDYWGQGTSVTVSS
VL: DVQMIQSPASLSASVGETVTITCRASENIYSYLAWYQQKQGKSPQLLVYNAKTLAEGVPSRFSGSGSGTQFSLKINSLQPEDFGSYYCQHFWSTPPTFGGGTKLEIK
notes: Hit from immunised mice; also called clone #2; anti-LILRB1/2 clone #2
With B1 the IC50 [1] was 0.191 µg/mL, the Kd [2] was 0.242 nM and the EC50 [3] was 0.258 µg/mL. For the same binder, the Kd [4] was 5.67 nM, the koff [4] was 0.000347 s⁻¹ and the kon [4] was 61300 M⁻¹ s⁻¹. It also gave a Kd [5] of 0.265 nM, an EC50 [6] of 0.218 µg/mL and a MaxMFI [6] of 110000. The Kd [7] was 0.286 nM, the EC50 [8] was 0.326 µg/mL and the binding result [9] was “no binding (tested: 5 µg/mL)”. For the same binder, the Kd [10] was 3.13 nM, the IC50 [11] was 0.208 µg/mL and the EC50 [12] was 0.439 µg/mL. The “gMFI (max)” value [12] was 35700, the EC50 [13] was 0.754 µg/mL and the binding result [14] was “no binding (tested: 5 µg/mL)”. For the same binder, the Kd [15] was 1.36 nM, the “IC50 (read off the curve)” value [16] was roughly 0.06 µg/mL and the Kd [17] was 0.469 nM. The Kd [18] was 1.57 nM, the Kd [19] was 9.77 nM and the binding result [20] was “binds”. For the same binder, the “EC50 (read off the curve)” value [21] was roughly 0.5 µg/mL, the binding result [22] was “no binding (tested: 5 µg/mL)” and the “EC50 (read off the curve)” value [23] was roughly 0.3 µg/mL.
